{"source": "paper PMC3587573", "key": {"BvPIP1;1 (Beta vulgaris) [1]": {"target": "BvPIP1;1 (Beta vulgaris)"}, "BvPIP1;1 (Beta vulgaris) [2]": {"target": "BvPIP1;1 (Beta vulgaris)", "remark": "listed apart in the source"}}, "data": [{"substance": "BvPIP2;1 N64I/E65Q (natural protein)", "values": [{"measurement": "oocyte membrane Pf on co-injection of BvPIP1;1 and BvPIP2;1 N64I/E65Q cRNA, against the mutant alone", "setting": "BvPIP1;1 (Beta vulgaris) [1]", "result": 4.1, "unit": "fold"}]}, {"substance": "BvPIP2;1 N64H/E65Q (natural protein)", "values": [{"measurement": "oocyte membrane Pf on co-injection of BvPIP1;1 and BvPIP2;1 N64H/E65Q cRNA, against the mutant alone", "setting": "BvPIP1;1 (Beta vulgaris) [1]", "result": 4.3, "unit": "fold"}]}, {"substance": "BvPIP2;1 (natural protein)", "values": [{"measurement": "maximal inhibition of Pf by cytosolic acidification in oocytes co-injected with BvPIP2;1 and BvPIP1;1 cRNA (1:1 mass ratio); not significantly different from BvPIP2;1 alone", "setting": "BvPIP1;1 (Beta vulgaris) [2]", "result": 87, "unit": "%"}]}]}
